Publication doi:10.1101/2020.05.27.119388 (bioRxiv, 2020)

Biological target: MYC-LRRK2 (leucine rich repeat kinase 2), wild type (human, UniProt Q5S007 1-2527)
Experiment: co-IP

Sequence of MYC-LRRK2 (leucine rich repeat kinase 2), wild type (Q5S007 whole entry): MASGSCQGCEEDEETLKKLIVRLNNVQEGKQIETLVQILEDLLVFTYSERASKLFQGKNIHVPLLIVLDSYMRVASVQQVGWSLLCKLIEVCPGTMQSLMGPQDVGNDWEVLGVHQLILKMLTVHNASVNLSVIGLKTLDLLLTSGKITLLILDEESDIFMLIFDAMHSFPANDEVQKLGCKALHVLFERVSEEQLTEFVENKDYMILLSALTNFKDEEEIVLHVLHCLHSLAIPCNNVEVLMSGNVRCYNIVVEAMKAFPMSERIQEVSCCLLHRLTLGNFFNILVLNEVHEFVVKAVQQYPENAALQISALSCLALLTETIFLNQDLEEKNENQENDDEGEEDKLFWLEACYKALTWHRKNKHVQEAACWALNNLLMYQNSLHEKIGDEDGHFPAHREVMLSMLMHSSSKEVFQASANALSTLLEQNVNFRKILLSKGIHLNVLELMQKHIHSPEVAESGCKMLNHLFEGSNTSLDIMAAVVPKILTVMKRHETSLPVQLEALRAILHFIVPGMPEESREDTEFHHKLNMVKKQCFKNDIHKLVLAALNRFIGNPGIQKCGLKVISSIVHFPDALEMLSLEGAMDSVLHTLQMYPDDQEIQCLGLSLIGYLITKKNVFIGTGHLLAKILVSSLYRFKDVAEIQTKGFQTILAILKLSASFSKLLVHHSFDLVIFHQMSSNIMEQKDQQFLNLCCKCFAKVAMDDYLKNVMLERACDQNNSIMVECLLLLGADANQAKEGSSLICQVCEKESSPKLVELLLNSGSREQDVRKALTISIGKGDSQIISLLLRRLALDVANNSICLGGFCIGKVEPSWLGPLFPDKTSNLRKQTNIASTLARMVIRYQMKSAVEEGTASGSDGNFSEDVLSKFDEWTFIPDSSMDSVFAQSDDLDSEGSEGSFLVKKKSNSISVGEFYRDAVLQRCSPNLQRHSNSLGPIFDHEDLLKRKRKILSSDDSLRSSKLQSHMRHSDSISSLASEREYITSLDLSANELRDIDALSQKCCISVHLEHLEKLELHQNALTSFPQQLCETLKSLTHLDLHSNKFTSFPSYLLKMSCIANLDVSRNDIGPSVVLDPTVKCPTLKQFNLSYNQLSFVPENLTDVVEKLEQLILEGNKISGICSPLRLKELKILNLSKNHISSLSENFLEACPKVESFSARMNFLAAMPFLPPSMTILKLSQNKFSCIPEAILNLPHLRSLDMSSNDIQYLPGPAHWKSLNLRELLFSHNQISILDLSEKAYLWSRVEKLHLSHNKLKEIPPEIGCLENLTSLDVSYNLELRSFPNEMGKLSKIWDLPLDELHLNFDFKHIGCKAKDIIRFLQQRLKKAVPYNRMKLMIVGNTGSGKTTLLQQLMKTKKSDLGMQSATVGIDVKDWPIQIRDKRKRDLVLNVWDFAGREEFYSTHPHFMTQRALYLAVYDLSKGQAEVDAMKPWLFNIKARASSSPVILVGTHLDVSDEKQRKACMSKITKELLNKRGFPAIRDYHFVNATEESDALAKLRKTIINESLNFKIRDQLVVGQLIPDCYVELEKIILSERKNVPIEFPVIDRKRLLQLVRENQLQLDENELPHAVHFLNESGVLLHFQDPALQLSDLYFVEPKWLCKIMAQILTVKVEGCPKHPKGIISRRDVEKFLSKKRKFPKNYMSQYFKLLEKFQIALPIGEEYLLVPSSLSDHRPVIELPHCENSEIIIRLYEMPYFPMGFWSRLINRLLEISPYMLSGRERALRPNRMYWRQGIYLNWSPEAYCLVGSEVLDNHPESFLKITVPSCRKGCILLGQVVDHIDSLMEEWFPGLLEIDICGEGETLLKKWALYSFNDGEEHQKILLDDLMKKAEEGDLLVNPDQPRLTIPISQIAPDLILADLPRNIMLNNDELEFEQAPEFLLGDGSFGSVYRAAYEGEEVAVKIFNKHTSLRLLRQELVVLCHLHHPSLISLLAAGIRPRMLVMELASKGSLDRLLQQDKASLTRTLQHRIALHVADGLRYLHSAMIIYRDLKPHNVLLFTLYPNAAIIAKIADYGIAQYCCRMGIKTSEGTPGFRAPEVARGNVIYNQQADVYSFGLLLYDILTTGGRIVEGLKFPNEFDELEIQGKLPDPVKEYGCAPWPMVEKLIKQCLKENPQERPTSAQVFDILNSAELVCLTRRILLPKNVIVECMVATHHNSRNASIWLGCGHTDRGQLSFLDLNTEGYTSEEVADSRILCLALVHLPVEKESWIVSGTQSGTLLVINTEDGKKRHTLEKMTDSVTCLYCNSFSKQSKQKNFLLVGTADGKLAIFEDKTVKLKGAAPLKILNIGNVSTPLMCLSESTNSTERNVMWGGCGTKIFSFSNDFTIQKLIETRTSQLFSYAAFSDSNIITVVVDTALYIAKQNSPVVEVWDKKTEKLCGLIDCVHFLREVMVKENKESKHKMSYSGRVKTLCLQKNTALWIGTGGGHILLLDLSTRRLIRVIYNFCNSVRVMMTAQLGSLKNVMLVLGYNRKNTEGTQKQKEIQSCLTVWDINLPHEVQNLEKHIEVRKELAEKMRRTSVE

binding result: binds
B1: GST-AP2M1, recombinant (natural protein)
chain: MIGGLFIYNHKGEVLISRVYRDDIGRNAVDAFRVNVIHARQQVRSPVTNIARTSFFHVKRSNIWLAAVTKQNVNAAMVFEFLYKMCDVMAAYFGKISEENIKNNFVLIYELLDEILDFGYPQNSETGALKTFITQQGIKSQHQTKEEQSQITSQVTGQIGWRREGIKYRRNELFLDVLESVNLLMSPQGQVLSAHVSGRVVMKSYLSGMPECKFGMNDKIVIEKQGKGTADETSKSGKQSIAIDDCTFHQCVRLSKFDSERSISFIPPDGEFELMRYRTTKDIILPFRVIPLVREVGRTKLEVKVVIKSNFKPSLLAQKIEVRIPTPLNTSGVQVICMKGKAKYKASENAIVWKIKRMAGMKESQISAEIELLPTNDKKKWARPPISMNFEVPFAPSGLKVRYLKVFEPKLNYSDHDVIKWVRYIGRSGIYETRC
